The text below walks through data of patent US8513197B2, “Ganglioside epitopes for treating Guillain-Barre syndrome” (Georgia Regents University, priority 2009, dated 2013).

In general, IC50 refers to the midpoint of a concentration-inhibition curve. As usually defined, the Cmax is the highest concentration seen after dosing.

The subject of series [1] is mAb R24. The series can be described thus: Competitive inhibition ELISA: binding of mAb R24 to GD3-coated plate. On the procedure:
Subsequently, an aliquot (100 μl) was added to each well, and each well of the ELISA plate was coated with 0.1 μg GD3. The remaining binding activity of mAb R24 was determined by ELISA. Values are means±SD, n=6 individual experiments. […] The experiment at each dose was performed on three rats, and values are means±SD.
(§1) Antiganglioside antibody activity was evaluated for GM1, GM2, GD1a, GD1b, GT1b, GQ1b, GD3, and LOSGD3 by conventional ELISA method (Usuki et al., 2005. J Neurol Sci 232: 37-44). […] Before the ELISA plate assay, each well was treated with 1% BSA/PBS solution. […] After incubation, the reaction mixture was passed through a 0.22-μm syringe filter (Millipore Corp., Bedford, Mass.). Subsequently, 100 μl of the mixture was added to each well and incubated for 1 hr at room temperature. To each of the wells, a secondary antibody (horseradish peroxidase-conjugated anti-mouse IgG, 1:5,000 dilution in 1% BSA/PBS solution) was added and incubated for 1 hr at room temperature. Finally, the bound secondary antibody was visualized by addition of a color-generating reagent (OPD Peroxidase Substrate). The absorbance was measured at 492 nm with a microplate spectrophotometer (Bio-Rad, Hemel Hempstead, United Kingdom). The nomenclature of gangliosides is based on that of Svennerholm (Svennerholm, 1964. J Lipid Res 5: 145-155).
FIG. 8 illustrates the effect of GD3-like peptides on binding of R24 mAb to GD3 by ELISA. Each of the GD3-peptide mimics in solution (PGD3-1, PGD3-2, PGD3-3, PGD3-4, PGD3-5, or PGD3-6) was incubated with R24 mAb for 30 min at room temperature at various concentrations as indicated in the horizontal axis. An aliquot of the mixtures (100 μL), was added to each well of an ELISA plate coated with 0.1 μg of GD3. The remaining binding activity of R24 mAb was measured by ELISA. Values are mean±SEM, n=6 individual experiments.
(§2) Anti-ganglioside antibody activity was evaluated for GM1, GM2, GD1a, GD1b, GT1b, GQ1b, GD3, and LOSGD3 by conventional ELISA as previously described (Usuki et al., 2005. J. Neurol. Sci. 232:37-44). To measure half-maximal inhibitory concentrations (IC50s) of GD3-like peptides for binding of GD3 to mAb R24, each well of the ELISA plate (Immunlon 1B, Lab System, Franklin, Mass., USA) was coated with 0.1 μg of GD3, and prior to ELISA assay was treated by 1% BSA/PBS solution. The purified mAb R24 IgG (10 μg/mL by 1% BSA/PBS solution) was incubated with various concentrations of GD3-like peptides (PGD3-1, PGD3-2, PGD3-3, PGD3-4, PGD3-5, and PGD3-6) for 30 min. After incubation, the reaction mixture was passed through a 0.22-μm syringe filter (Millipore Corp., Bedford, Mass., USA), and 100 μL of the mixture was added to each well and incubated for 1 h at room temperature. A secondary antibody (horseradish peroxidase-conjugated anti-mouse IgG, 1:5000 dilution in 1% BSA/PBS solution) was applied, incubated for 1 h at room temperature, and visualized by addition of a color-generating reagent (OPD Peroxidase Substrate). The absorbance was measured at 492 nm with a microplate spectrophotometer (BioRad, Hemel Hempstead, UK).
In general terms: In an ELISA, binding on a coated surface is turned into a signal by an enzyme label.

The test system of series [2] is anti-GD3 antibody and anti-LOSGD3 antibody. The experiment in a line: Time course of serum anti-GD3 and anti-LOSGD3 antibody (ELISA) in immunized rats. It counts as in vivo, Lewis rats. The note with it: peptide 1000 nmol/kg i.p. daily, from weeks 8, 11 and 14. How it is done:
as §1
as §2, with “A secondary antibody (horseradish peroxidase-conjugated anti-mouse IgG, 1:5000 dilution in 1% BSA/PBS solution) was applied, incubated for 1 h at room temperature, and visualized by addition of a color-generating reagent (OPD Peroxidase Substrate).” left out

Series [3] has as its system LOSGD3-sensitized rats. The experiment in a line: Rotarod motor test. The settings on record: LOSGD3/peptide group vs LOSGD3 treatment group, week 17. For orientation: In the rotarod test animals must keep their balance on a rotating rod.
Method: Twelve-week-old female Lewis rats weighing 200-250 g were used. One hundred micrograms LOSGD3 was dissolved in 50 mM PBS buffer with a vehicle of 0.05 ml keyhole limpet hemocyanin (KLH; 2 mg/ml) and emulsified with an equal volume of complete Freund's adjuvant (CFA). Rats were given a single subcutaneous injection of 0.1 ml inoculum (or vehicle) into the shoulders and the footpads of the hind limbs. In addition, booster injections were administered similarly to injections in LOSGD3 (or vehicle)-treated animals at 2-week intervals with 100 μg LOSGD3 (or no additive) and 2 mg/ml KLH in PBS emulsified with an equal volume of incomplete Freund's adjuvant (ICFA) 6 weeks thereafter. Sixteen experimental animals were divided into four groups (n=4 each): 1) LOSGD3, 2) LOSGD3/BEC2, 3) vehicle, and 4) vehicle/BEC2. The remaining animals were included as the untreated control group (n=4). As shown in the third and fourth stepladders of FIG. 2, BEC2 (5 mg kg^−1) was administered to rats once per week from 8 to 15 weeks.
A rat was placed on a rotating roller (4 cm in diameter), and the time for which the rat remained on the roller was measured. The test included eight trials; each trial was performed at an interval of 10 min; four trials were performed. An additional four trials were conducted after 24 hr. When the rat could stay on the rotating rod at a constant speed of 5 rpm for a cumulative duration of at least 2 sec, the rotation speed was increased by 0.2 rpm/sec.
Twelve-week-old female Lewis rats, weighing 200-220 g each, were used. One hundred micrograms of LOSGD3 was dissolved in 50 mM PBS buffer as vehicle, and with 0.05 mL of keyhole limpet hemocyanin (2 mg/mL) emulsified with an equal volume of complete Freund's adjuvant. A single subcutaneous injection of 0.1 mL of inoculum (or vehicle) was made into the rats' shoulders and hind limb footpads. […]
Series [4] concerns LOSGD3-sensitized rats. The experiment in a line: Nerve conduction velocity (NCV) in rat tail nerve. The settings on record: LOSGD3/peptide-treated groups, week 16.
Method: Twelve-week-old female Lewis rats, weighing 200-220 g each, were used. One hundred micrograms of LOSGD3 was dissolved in 50 mM PBS buffer as vehicle, and with 0.05 mL of keyhole limpet hemocyanin (2 mg/mL) emulsified with an equal volume of complete Freund's adjuvant. A single subcutaneous injection of 0.1 mL of inoculum (or vehicle) was made into the rats' shoulders and hind limb footpads. Additional booster injections were administered similarly to LOSGD3- (or vehicle-) treated animals at 2-week intervals with 100 μg of LOSGD3 (or no additive) and 2 mg/mL of keyhole limpet hemocyanin in PBS emulsified with an equal volume of incomplete Freund's adjuvant after 6 weeks. Forty-four experimental animals were grouped into 10 treatment paradigms (n=4 each): (i) LOSGD3, (ii) LOSGD3/PGD3-3, (iii) LOSGD3/PGD3-4, (iv) LOSGD3/PGD3-5, (v) LOSGD3/PGD3-6, (vi) vehicle, (vii) vehicle/PGD3-3, (viii) vehicle/PGD3-4, (ix) vehicle/PGD3-5, and (x) LOSGD3/PGD3-6. The remaining four animals were the untreated control group (n=4). […]
NCVs (m/s) were measured in the rat tail nerve using a Nicolet VikingQuest EMG machine (NeuroCare Group, Madison, Wis., USA) according to the method described previously (Usuki et al., 2006. J. Neurosci. Res. 83:274-284).
A short description of series [5]: Pharmacokinetic study of bPGD3-4 after i.p. single dose (streptavidin-coated ELISA of plasma). The note with it: for tmax: normal Lewis rats.
Method: Briefly, the plasma samples from the single-dose administration of bPGD3-4 were applied to the streptavidin-coated ELISA plates at serial double dilutions in 1% bovine serum albumin/phosphate buffered-saline (BSA/PBS) solution. […] After washing with 1% BSA/PBS buffer, each well was treated with an anti-mouse IgG horseradish peroxidase-conjugated antibody (Jackson ImmunoResearch Lab, West Grove, Pa., USA). This secondary antibody was pre-treated with rat IgG to eliminate contamination from any anti-rat IgG binding activity. Finally, the bound secondary antibody was visualized by a color-generating reagent (OPD Peroxidase Substrate in PBS; Sigma, St Louis, Mo., USA). Half-saturation absorbance values for plasma samples were estimated by serial plasma dilution curves of ELISA. The absorbances were then converted into values of plasma concentration using a standard serial dilution curve of rat serum containing authentic bPGD3-4.
A Micro-Renathane polyurethane cannula, 0.84 mm o.d.×0.36 mm i.d., (Braintree Scientific Inc., Braintree, Mass.) was inserted before dosing into the femoral vein of a female Lewis rat (n=9; body weight=200±20 g). […] Blood samples were centrifuged at room temperature and the plasma harvested. The plasma samples were stored at −60° C. to −80° C. until analyzed by a streptavidin-coated ELISA plate for determining the total concentration of bPGD3-4.
The following parameters were calculated: maximum-, minimum-, and average-observed plasma concentration (Cmax, Cmin, and Cav), areas under the plasma concentration-time curve from zero to infinite time (AUC) plasma clearance (CL), distribution half-life (t1/2α), and elimination half-life (t1/2β).
Setting [6] is: as restated in Example 12, read-out: IC50 values for the active peptides.
[7] abbreviates: simulated, 1,000 nmol kg^−1 i.p. at 24-hourly intervals for 7 days.
Where [8] appears, read: i.p. single dose 100.0 nmol kg^−1, mean (SD).
[9] abbreviates: i.p. single dose 500.0 nmol kg^−1, mean (SD).
Setting [10] is: i.p. single dose 1000.0 nmol kg^−1, mean (SD).

Read-outs that look alike come from different tables or passages of the source. No end group written: not given here.

As for ACTPYAMLPGCK [PGD3-5], the “inhibitory activity on GD3 reactivity to mAb R24” value (“inhibitory activity” below) in series [1] (ELISA) is given as “remarkable inhibitory activities”. Also, the IC50 in series [1] (setting [6]) amounted to 100 nM; in series [1] (read-out: IC50, competitive inhibition of GD3 reactivity to mAb R24, ELISA, 0.1 μg GD3 per well, as printed in Example 11), 100 nM. For the same substance, in series [2], the “effect on serum anti-GD3 / anti-LOSGD3 antibody level” value was “effective in suppressing serum anti-GD3 antibody activity”. Also, in series [3], the “rotarod retention time / motor performance” value is recorded as “did not show any statistically significant differences”. Further, the “effect on NCV” value in series [4] is given as “less attenuation of NCV”.
For GLAPPDYAERFFLIS [PGD3-3], the “inhibitory activity” value in series [1] (ELISA) is given as “remarkable inhibitory activities”. Also, the IC50 in series [1] (setting [6]) was determined as 300 nM. Moreover, the “effect on serum anti-GD3 / anti-LOSGD3 antibody level” value in series [2] is “no suppression of either anti-LOSGD3 or anti-GD3 antibodies”. Also, in series [3], the “rotarod retention time / motor performance” value was “did not show any statistically significant differences”.
In the case of “LAPPRPRSELVFLSV [PGD3-1, GD3-like peptide]”, the “inhibitory activity” value in series [1] (ELISA) is reported as “little or no inhibitory activity”.
Same read-out and setting: in the case of “PHFDSLLYPCELLGC [PGD3-2, GD3-like peptide]” it was “little or no inhibitory activity”.
For RHAYRSMAEWGFLYS [PGD3-4], in series [5] (read-out: Cmax, chronic simulation, simulated, 1,000 nmol kg^−1 i.p. at 24-hourly intervals for 7 days), the Cmax was 670 µM. Also, in series [5] (setting [7]), the “Cav, chronic simulation” value is 340 nmol/mL and the “Cmin, chronic simulation” value is on record as 0.33 nmol/mL.
In the case of SVAVPPPADDPSWRY [PGD3-6], the “inhibitory activity” value in series [1] (ELISA) is on record as “remarkable inhibitory activities”. Also, the IC50 in series [1] (setting [6]) is 250 nM. In addition, the “effect on serum anti-GD3 / anti-LOSGD3 antibody level” value in series [2] is “no suppression of either anti-LOSGD3 or anti-GD3 antibodies”. Besides, in series [3], the “rotarod retention time / motor performance” value is recorded as “did not show any statistically significant differences”.
Take “bPGD3-4: biotinylated product of GD3-like peptide PGD3-4 (RHAYRSMAEWGFLYS; also: biotinylated, site not given here)”: in series [5] (setting [8]), the “AUC (zero to infinite time)” value is given as 130.0 (43.6) nmol mL^−1 hr, the “CL (plasma clearance)” value was 0.82 (0.24) mL hr^−1, the highest level (Cmax) was 70.8 µM and the “t1/2α (distribution half-life)” value was 0.48 (0.03) hr. The “t1/2β (elimination half-life)” value in series [5] (setting [8]) is on record as 2.45 (0.27) hr. For the same substance, in series [5] (setting [9]), the “AUC (zero to infinite time)” value was 589.2 (72.9) nmol mL^−1 hr, the “CL (plasma clearance)” value was 0.86 (0.11) mL hr^−1, the Cmax came to 267 µM and the “t1/2α (distribution half-life)” value is reported as 0.42 (0.03) hr. Also, in series [5] (setting [9]), the “t1/2β (elimination half-life)” value is listed as 2.45 (0.33) hr. In series [5] (setting [10]), the “AUC (zero to infinite time)” value was 1425.7 (78.8) nmol mL^−1 hr, the “CL (plasma clearance)” value was 0.71 (0.04) mL hr^−1, the Cmax was 667 µM and the “t1/2α (distribution half-life)” value is 0.46 (0.03) hr. For the same substance, the “t1/2β (elimination half-life)” value in series [5] (setting [10]) is on record as 2.76 (0.42) hr. In series [5] (i.p. single dose 100.0 nmol kg^−1, n = 3), this substance had a tmax of 30 min. In addition, the tmax in series [5] (i.p. single dose 500.0 nmol kg^−1, n = 3) turned out to be 30 min. This substance also registered a tmax in series [5] (i.p. single dose 1000.0 nmol kg^−1, n = 3) of 30 min. Also, the “death or toxicity after peptide administration” value in series [5] (rats, i.p. single dose of 100, 500 and 1,000 nmol kg^−1) is recorded as “None of the experimental rats died or exhibited toxicity”. The linearity of pharmacokinetics entry in series [5] (single-dose range 100-1000 nmol kg^−1) is recorded as “linear pharmacokinetics”.
